Reference: the RNAGym collection of RNA variant scans (doi:10.7554/elife.90254)

B1: LINE1-full (parent)
chain: UACGUAGGUGGUUUUCCCCUGAUAGUGCUAAGGGGGCCUGGAAGUUUGGACUGGGCAGAGCUCAACACAGCGUGGCAAAGUGGCUGUGGCUAGACUGCCUCUCUGGAUUCCUCGUCACUCAGCAGGGCAUCUCUGAGAGAAAUGCC

Variants of: B1
Test: self-cleavage, relative activity (ratio to wild type); higher = more cleavage; in vitro, sequencing; the parent is a self-cleaving ribozyme

| Variant | self-cleavage |
| --- | --- |
| C51U A142U | 0.87 |
| U12G A129C | 1.1 |
| U81A U100A | 2.09 |
| A6G A138G | 1.11 |
| A42G A57U | 0.14 |
| A92C A124G | 0 |
| C90U G114U | 0.03 |
| G41U A65G | 0.03 |
| A59G U85A | 0.04 |
| U62C A107G | 0.06 |
| A30U U46G | 1.14 |
| A57C U130A | 0.03 |
| U81G | 1.32 |
| C16U U52C | 1.47 |
| U46G A50G | 0.92 |
| U46C C111A | 1.17 |
| A31G A69U | 0.12 |
| A92C A141G | 0.26 |
| U1C A78G | 1.38 |
| U9C A67U | 0.26 |
| U115A A129U | 1.04 |
| G44A U46C | 1.06 |
| U5A G34U | 0.88 |
| A30G U143A | 0.93 |

| Variant | self-cleavage |
| --- | --- |
| U12C A64U | 1.53 |
| G4C U112C | 1.42 |
| U47A U119A | 1.34 |
| U102C A142U | 1.26 |
| U102C A142G | 1.53 |
| A69C U104C | 0.22 |
| U1C U104C | 0.68 |
| U1C G4A | 0.46 |
| U115C C146A | 1.82 |
| G11A U46C | 0.94 |
| A2G G55A | 0.2 |
| G74A G89A | 0.03 |
| A22G A142U | 0.92 |
| A22U A92U | 0.63 |
| U20C G83A | 1 |
| G34A C146A | 1.39 |
| U87C A124U | 0.33 |
| U26C G54A | 0.6 |
| U13G C76U | 1.47 |
| C51G C71U | 1.5 |
| G60A A94C | 0.01 |
| A43U A64U | 0.43 |
| U23C A138U | 1.84 |
| G83A U130A | 0.99 |

| Variant | self-cleavage |
| --- | --- |
| C101A | 1.38 |
| G86A U119C | 0.07 |
| A77C U130C | 1.89 |
| A59G C103U | 0.06 |
| C103U U115A | 1.72 |
| A67G U96C | 0 |
| C63A U108C | 0.08 |
| A94U U115C | 0.45 |
| C28U U102C | 0.15 |
| U39C U85A | 0.05 |
| U20G U102C | 1.73 |
| C19A A57G | 1.11 |
| U62A U143A | 0.04 |
| U15C A30U | 0.5 |
| U73C C131G | 1.73 |
| U109A A121G | 1.82 |
| U1C U5C | 0.87 |
| U91C U134A | 0.57 |
| C84U U100C | 0.21 |
| U39C A57G | 0.44 |
| A65U U100C | 0.16 |
| U85C U108A | 0.28 |
| G44C U112C | 1.18 |
| C37U U100C | 1.66 |

| Variant | self-cleavage |
| --- | --- |
| G125U U132C | 1.47 |
| A121U U132A | 1.36 |
| C71U C146U | 0.66 |
| A6G A31G | 0.66 |
| A57G U96G | 0 |
| G36U U104C | 2.32 |
| G54A G88A | 0.08 |
| G53A U96A | 0.06 |
| G21A | 1.14 |
| U46C C101U | 2.71 |
| A31U U87A | 0.14 |
| C18U U81C | 0.84 |
| U52G U102C | 1.87 |
| A30G C38U | 1.2 |
| G21A A59U | 0.57 |
| A43G U134A | 0.89 |
| G11U U134G | 1.07 |
| G82A A138G | 2.26 |
| U100C A140G | 1.79 |
| U13C A107G | 1.39 |
| U96A C110U | 0.08 |
| G74A U102C | 1.08 |
| U52A A79U | 2.26 |
| U73A U115C | 1.9 |

| Variant | self-cleavage |
| --- | --- |
| U26A U104A | 0.98 |
| C56A U104C | 0.1 |
| C118U C131U | 1.66 |
| C51U A94G | 0.22 |
| U12G U62C | 0.14 |
| A67G A78G | 0.27 |
| G41A U143G | 1.11 |
| A121G U134G | 1.58 |
| U62A U73A | 0.04 |
| U91C | 0.67 |
| C3U A117G | 0.45 |
| A24U A138U | 1.93 |
| U104C A117G | 1.23 |
| G7U U20C | 1.15 |
| U45G C113A | 0.98 |
| G32A A50G | 0.93 |
| A59G U115C | 0.07 |
| U134A A142C | 1.23 |
| A142G G144A | 1.44 |
| A79U A140G | 1.85 |
| A24U U115C | 1.92 |
| A57U A121U | 0.12 |
| G80A A124G | 1 |
| U46C U85C | 0.35 |

| Variant | self-cleavage |
| --- | --- |
| G21A U102C | 1.79 |
| A31G U104A | 0.48 |
| U47C G72A | 0.94 |
| U5C U132A | 1.98 |
| U26A U47A | 0.59 |
| U29G G35C | 1.03 |
| G7C G48A | 0.92 |
| G8U A124U | 1.47 |
| A24G C128A | 0.65 |
| U13C G21A | 0.94 |
| G27U | 0.97 |
| A31G C110U | 0.51 |
| U115G A140G | 2 |
| A30G A43U | 1.5 |
| U47A U73A | 1.11 |
| G80A A121G | 2.16 |
| C18U A124U | 1.27 |
| U20G A141G | 0.87 |
| U39A G70U | 0.05 |
| C63U U115C | 0.32 |
| U102C A121G | 1.06 |
| A79U A141G | 1.71 |
| U29C A65C | 0.1 |
| A69U A124C | 0.02 |

| Variant | self-cleavage |
| --- | --- |
| U96C G135A | 0.24 |
| G25U U45G | 0.93 |
| C37U U62C | 0.04 |
| A59U A121U | 0.79 |
| A69C G93A | 0.01 |
| U9G U52G | 1.05 |
| U87A U115C | 0.09 |
| A94G U143C | 0.43 |
| A69G C95A | 0 |
| U20C C128U | 1.24 |
| G7A A138G | 1.37 |
| U100A A142G | 0.77 |
| G25A A79G | 0.91 |
| G48A U132A | 1.38 |
| A24C A77G | 2.76 |
| U87A A141U | 0.08 |
| A50G G58C | 0.11 |
| A22G A124U | 0.8 |
| U23C C146A | 0 |
| G25C U115A | 1.02 |
| U87A A142G | 0.07 |
| A57G G75C | 0.35 |
| U14C G36U | 1.31 |
